Measured values taken from PMC4562626.

Test: TIRF total EGFP fluorescence in adhered membrane
Settings: glycan lost; control: wild type Kv1.1-EGFP

B1: Kv1.1: N207Q (protein)
parent chain: MTVMSGENADEASAAPGHPQDGSYPRQADHDDHECCERVVINISGLRFETQLKTLAQFPNTLLGNPKKRMRYFDPLRNEYFFDRNRPSFDAILYYYQSGGRLRRPVNVPLDMFSEEIKFYELGEEAMEKFREDEGFIKEEERPLPEKEYQRQVWLLFEYPESSGPARVIAIVSVMVILISIVIFCLETLPELKDDKDFTGTIHRIDNTTVIYTSNIFTDPFFIVETLCIIWFSFELVVRFFACPSKTDFFKNIMNFIDIVAIIPYFITLGTEIAEQEGNQKGEQATSLAILRVIRLVRVFRIFKLSRHSKGLQILGQTLKASMRELGLLIFFLFIGVILFSSAVYFAEAEEAESHFSSIPDAFWWAVVSMTTVGYGDMYPVTIGGKIVGSLCAIAGVLTIALPVPVIVSNFNYFYHRETEGEEQAQLLHVSSPNLASDSDLSRRSSSTISKSEYMEIEEDMNNSIAHYRQANIRTGNCTATDQNCVNKSKLLTDV
In the case of B1, the expression_or_secretion is reported as “no change”.
